# In the nanobody polyreactivity screen of Harvey et al. (2022):
# Experiment: yeast display, Sf9 membrane polyspecificity reagent, FACS + sequencing; frameworks hold sequencing errors
# Method in brief: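 Using colony PCR, genes from sorted yeast display clones were amplified, then sequenced on MiSeq at 2 × 250 and filtered by CDR length. The clones had been stained with 10% biotinylated, detergent-solubilized Sf9 membrane reagent for 1 hour at 4 °C and sorted by FACS into low and high (top ~1%) gates on anti-HA and streptavidin fluorescence. Polyreactivity labels come from the gate of origin.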
row,Sequence,polyreactivity (PSR sort gate)
1,QVQLVESGGGLVQAGGSLRLSCAASGITFTRYGMGWYRQAPGKERELVAVISSSGGRTYYADSVKGRFTISRDNAKNTVYLQMNSLKPEDTAVYYCATVRVLAKYRPKMDYWGQGTQVTVSS,high polyreactivity
2,QVQLVESGGGLVQAGGSLRLSCAASGRIFRNYAMGWYRQAPGKERELVPAITRGGSTYYAVSVKGRFSISRDNAKNTVYLQMNSLKPEDNAVYYCNKAWPYSHPVQYHRSRSYDYWGQGTQVTVSS,high polyreactivity
3,QVQLVDSGGGLVQAGGRLRLSCAASGFIFGRNAMGWYRQAPGKERELVAGISSSGVRTFYADSVKGRFTISRDNAKNTVYLQMNSLKPEDNAVYYCATRGRVYPTKYSLDEDYWGQGTQVTVSS,high polyreactivity
4,QVQLVDSGGGLVQAGGSLRLSCAASGRIFYFNAMGWYREAPGKERELVAAISKSGGSTYYADSVKGRFTISRDNAKNTVYLQMNSLKPEDTAVYYCAAGFWYYSYPTLYEYGYWGQGTQVTVSS,low polyreactivity
5,QVQLVESGGGLVQAGGSLRLSCAASGYTFVTYAMGWYRQAPGKERELVAAISYTGGSTYYADSEKGRFTISRDNAKNTVYLQMNSLKPEDTAVYYCNTRYSLYTKYAYYDEHDYWGQGTQVTVSS,low polyreactivity
6,QVQLVETGGGLVQAGGSLRLSCAASGSIFYPNAMGWYRQAPGKERELVAAISSSGGTNYADSVKGRFTISRDNAKNTVYLQMNSLKPEDTAVYYCNARDKVRYRYSRMDYWGQGTQVTVSS,low polyreactivity
7,QVQLVESGGGLVQAGGSLRLSCAASGSIFEPYAMGWYRQAPGKERELVAAISSGTSTYYADSVKGRFTISRDNAKNTVYLQLNSLKPEDTAVYYCAAEEQIPWTNNAKYYYWGQGTQVTVSS,low polyreactivity
8,QVQLVESGGGLVQAGGSLRVSCDASGFTFFYNAMGRYRQAHGKERELVASISSVGRTNYADSVKGRFRISRDNAKNTVYLQMNSLTPEDTAVYFCAAYRAPATRRRGYYYWGLGTQVTVSS,high polyreactivity
9,QVQLVESGGGLVQAGGSLRLSCAPSGYIFQAYVMGWYRPAPGKERELVAAITSGGGTYYADSVKGRFTISRDNAKNTVYLQMISLKPEDTAVYYCAARYTQRPRRNYWGQGSQVTVSS,high polyreactivity
10,QLQLVESGGGLVQAGGSLRLSCAHSGRTFYVNAIGWSRQAPRKERELVATITDRGGRSYYADSVKGRFTISRDNAKNSVYLQMTSLKPEDTAVYYCAATRWYEVDYWGQGTQVTVSS,low polyreactivity
11,QVQLVESGGGLVQAGGSLSLSCAASGRIFVRNSMGWYRQEPGKETELVADITNGGSTNYADSVKGRFTISRDNAKNTVYLQMNSQKPEDTAVYYCAADTLGVYDGDYWGQGTQVTVSS,low polyreactivity
12,QVQLVESGGGLVQAGGSLRLSCAASGSIFVYVMGWYRQAPGKERELVAAISSGGSTDYADSVKGRFTISRDNAQNTVYLQMNSLKPEDTAVYYCAADTDTGYTYYYWGQGTQVTVSS,low polyreactivity
13,QVQLVESGGGLVQAGGSLRLSCAASGSIISGNVMGWYRQAPGKEREFVATISWRGGNTYYADSVKGRFTISRDNAKNTVYLQMNSLKPEETAVYDCATRRLYSKSWYYYWGQGTQVTVSS,high polyreactivity
14,QVQLVESGGCLVQAGGSLRLSCAASGCTFVSNAMGWSRQAPGKERELVAAINGSGGITYYADSVKGRFTISRDNAKNTVYFQMNSLKPEDTAVYYCAAEVLYWRGYYNYWGQGTQVTVSS,low polyreactivity
15,QVHLVDSGGGVVVAGGRLRLSCAASVFTFDRNAMGWYRHARGKERALVAAISSSGGRTYYADSVKGRFTISRDNAKNTFYLQMNSLKPEDTAVYYCNAVPSARTQPYNGWGQGSQVTVSS,high polyreactivity
16,QVQLVESGGGLVQAGGSLRLSCAASGSIFGINTMGWYRHAPGKEREFVASIRFNDGDTYYADSVKGRFTISRDTAKNTVYLKMNSLKPEDTAVYYCNVQTYVELRLDYWGQGTQVTVSS,low polyreactivity
17,QVQLVESGGGLVQAGGSLRLSCDASGRTFGYYAMGWYRHAPGQERELVAGIRSSGGSTYYADSVKGRFTISRDNAKNTVYLQMNSLKPEDTAVYYCAARLRSYHYRYGYDYWGQGTQVTVSS,high polyreactivity
18,QVQLVESGGGLVQAGGSLSLSCAASGSTFRHYAMGGYRQAPGKERELVAAISSRGGSTHYADSVKGRFTISRDNAKNTVYLQMNSLKPEDTAVYYCARDTDTQSSRSSDYDYWGQGTQVNVSS,low polyreactivity
19,QVQLVESGGGLVQAGGSLRLSCAASGRILKYNALGWYRQAPGKERELVAAISYRGGSTYYADSVKGRFTISRDNAKNTVYLQMNSLKPEDTAVYYCNAGGGILNGPLFDYWGQGTQVTVSS,low polyreactivity
20,QVQLVESGGGLVQAGGSLRLSCAASGRTFRQYAMGWYRQAPGKERELVADISSGGSTYYADSVKGRFTISRDNAKNTVYLKLNRLKPEDTAVYYCNKVSSGRYGSRSFDYWGQGTQVTVSS,low polyreactivity
21,QVQLVESGGGLVQAGGSLRLSCAASGYTFQWYDMGWYRQAPGKERELVASISWRGGSTYYADSVKGRFTISRDNAKNTVYLQMNSLKPEDTAVYYCAASLWPDYEYDYWGQGTQVTVSS,low polyreactivity
22,QFQLVESGGGLVQAGGSLRLSCAASGFIDNTMGWYRQAPGKQRELVATISWSDGSTYYADSVKGRFTISRDNAKITVYLLMNSLKPEDTAVYYCAATTDALVGRPRYDYWGQGTQVTVSS,low polyreactivity

row,Sequence,polyreactivity (PSR sort gate)
1,QVQLVESGGGLVQAGGSLRLSCAASGLTFRPYAMGWYRPAPGKERELVAAISTTGGSTYYADSVKGRFTISRDNAKNTVYLQMNSLKPEDTAVYYCAAPTSQRRVLSYRPYGYWGQGTQVTVSS,high polyreactivity
2,QVQLVESGGGLVQAGGSLRLSCAASGRTFAAYAMGWYRQAPGKERELGAAISIGGSTNYADSVKGRFTISRDNAKNTVYLQMNSLKPEDSAVYYCAAPWYRGGTTESYYWGQGTQVTVSS,high polyreactivity
3,QVQLVESGGGLVQAGGSLRLSCAASGGTFRSNAMGWYRQAPGKERELVAAISKRGGSTHYADSVKGRFTISRDNSKNTVYLQMNSLKPEDTAVYYCNTYGWQEGDYWGQGTQVTVSS,high polyreactivity
4,QVQLVESGGGLVQAGGSLRLSCAASGRTFGINAMGWYRQAPGKERELVAVISFGEGGTYYADSVKGRFTISRDNAKNTVYLQMNSLKPEDTAVYYCATDYQSTSVWGGHFVINPYDYWGLGTQVTVSS,low polyreactivity
5,QVQLVESGGGLVQAGGSLRLTSAASGRIFSHNAMGWCRPAPGKERELVAAITVGGGSTFYADSVKGRFTISRDNAKNTVYLQMNSLKPEDTAVYYCAADYYTQWQTRYDYWGQGTQVTVSS,low polyreactivity
6,QVQLVESGGGLVQAGGSLRLSCAASGRISFRYAMGWSRQAPGKEWELVAAINRGGITNYADSVKGRFTISRDNAKNTVYFQMNSLKPEDTAVYYCAARYASPRYKSKMDYWGQGTQVTVSS,high polyreactivity
7,QVQLVESGGGLVQAGGSLRLSCAASGSIIPGYTMGWYRQAPGKERELVAAISRRGGSTYYADSVKGRFTISRDNAKNTVYLQMNSLKPEDTAVYYCAASLWYRISKYDYWGQGTQVTVSS,high polyreactivity
8,QVQLVESGGGLVQAGGSLRLSCAASGGIFYLYAMGWYRQAPGKERELVAAITWSADSTYYADSVKGRFTISRDNAKYTVYLQMNSLKPEDTAVYYCNADVAWQYWNGWSWDIYDYWGQGTQVTVSS,low polyreactivity
9,QVQLVESGGRLVQAGGSLRLRCAASGFIFGWYTMGWYRQAPGKERELVASISRSGGSTYYADSVKGRFTISRDNEKNTVYVQMNSLKPEDTAVSYCAKRSLVDAHGYWGQGTQVTVSS,high polyreactivity
10,QVQLVESGGGLVQAGGSLRLSCAASGRTFLWYAMGWYRQAPGKERELVAAITTAGSTYYADSVKGLFTISRDNAKNTVYLLMNSLKPEDTAVYYCNRLTYAYPPPVLGVGHDSWGQGTQVTVSS,low polyreactivity
11,QVQLVESGGGLVQAGGSLRLSCAASGRTFFRYVMGWYRQAPGKERELVAAISRSGGSTYYADSVKGRFTISRDNAKITVYLQMNSLKPEDTAVYYCNTVARSTVVPTEFDYWGQGTQVTVSS,high polyreactivity
12,QVQLVESGGGLVQAGGSLRISCAASGRTFQFNVMGWYRQAPGKERELVASIRSGGSTNYADSVKGRFTISRDNAKNTVYLQMNSLKPEDTAVYYCAARVASPYYRYDYWGQGTQVTVSS,low polyreactivity
13,QVQLVESGGGLDQAGGSLRLSCAASGRIFRRYAMGWYRQAPGKERELVAAISTRGGSTYYADSVKGRFTISRDHAKNTVYLQMNSLKPEDTAVYYCNAEARSRRYRYDYWGQGTQVTVSS,high polyreactivity
14,QVQLVESGGGLVQAGGSLRLSCAASGSTFDTYAMGWYRQAPGKERELVATITNSVGNTYYADSVKGRFTISRDNAKNTVYLQMNSLKPEDTAVYYCAAETVYILAPGYYDYDYWGQGTQVTVSS,low polyreactivity
15,QVQIVESGGVLVQAGGSIRLSCDASGSLFTIYAMGCYRQAPGKERELVAAITWSGGSTYYADSVKGRYTISRDNAKNTVNLQMNSLKPEDTAVYYCAADAYTGDIPYWWPWNNEYDYWGQGTQVTLSS,low polyreactivity
16,QVQLVESGGGLVQAGGSLRLSCAASGYTIGNNAMGWYRQAPGKERELVARIRTNGGTTYYADSVKGRFTISRDYAKNTVYLQMISLKPEDTAVYYCIAYRGYEYDYWGQGTQVTVSS,low polyreactivity
17,QVQLVESGGGLVQAGGSLRLSCASSRINFYLYAMGWYRQAPGIERELVAAISRRGVSTYYADSVKGRFTISRDNAKNSVYLEMKSLKAEDTGVYYCAAAGFGYTGEEFWGQGTQVTVSS,high polyreactivity
18,QVQLVESGGGLVQAGGSLRLSCAASGSIFGPYAMGWYRQAPGKERELVAAITWTGGRTYYADSVKGRFTISRDNAKNTVYLQMISLNPEDTAVYYCAADYSPSTWYLYYTLFYYWGQGTQVTVSS,low polyreactivity
19,QVQLVDSGGGLVQAGGSLRLSWAASGITFYTYTMGWYRQAPGKERELVAAISRRGGGTYYADSVKGRFTISRDNGKNTVYFQMNILKTEVTAVYYCAKDWYGRYYYWGQGTEVTVSS,high polyreactivity
20,QLQLVESGGGLVQAGGSLRLSCAASGFIFYYNVMGWYRQAPGKERELVAAIRYRGTITYYADSVKGRFTISRDIAKNTVYLQMNSLKPEDTAVYYCARRQRNYYRSSPGGDYWGQGTQVTVSS,low polyreactivity
21,QVQLVESGGGLVQAGGSLRLSCAASGSTFAPYAMGWYRQAPGKERELVASISWRGGRTYYADSVKGRFTISRDNAKNTVYLQMNSLKPEDTAVYYCATSRYRVDRWGPPYRYDYWGQGTQVTVSS,high polyreactivity
